Measured values: the supplement of paper PMC5998384

Key:
[1] = test system: HeLa Kyoto; experiment: solubility change mitosis vs G1/S (difference of NP-40 vs SDS log2 ratios) (log2 ratio difference); higher = more soluble in mitosis
[2] = test system: HeLa Kyoto; experiment: solubility in G1/S (NP-40 vs SDS abundance) (log2 ratio); higher = more soluble; conditions: cell cycle stage: G1/S
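For solubility change mitosis vs G1/S (difference of NP-40 vs SDS log2 ratios) in this document: synchronized HeLa Kyoto cells (double thymidine block for G1/S, nocodazole release for mitosis), protein amounts in NP-40 versus SDS lysates quantified by mass spectrometry, three biological replicates.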
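For solubility in G1/S (NP-40 vs SDS abundance) in this document: HeLa Kyoto cells arrested at G1/S by double thymidine block, proteins quantified by TMT10plex mass spectrometry in mild NP-40 versus SDS extracts, three biological replicates.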

Sequence: MPKIVLNGVTVDFPFQPYKCQQEYMTKVLECLQQKVNGILESPTGTGKTLCLLCTTLAWREHLRDGISARKIAERAQGELFPDRALSSWGNAAAAAGDPIACYTDIPKIIYASRTHSQLTQVINELRNTSYRPKVCVLGSREQLCIHPEVKKQESNHLQIHLCRKKVASRSCHFYNNVEEKSLEQELASPILDIEDLVKSGSKHRVCPYYLSRNLKQQADIIFMPYNYLLDAKSRRAHNIDLKGTVVIFDEAHNVEKMCEESASFDLTPHDLASGLDVIDQVLEEQTKAAQQGEPHPEFSADSPSPGLNMELEDIAKLKMILLRLEGAIDAVELPGDDSGVTKPGSYIFELFAEAQITFQTKGCILDSLDQIIQHLAGRAGVFTNTAGLQKLADIIQIVFSVDPSEGSPGSPAGLGALQSYKVHIHPDAGHRRTAQRSDAWSTTAARKRGKVLSYWCFSPGHSMHELVRQGVRSLILTSGTLAPVSSFALEMQIPFPVCLENPHIIDKHQIWVGVVPRGPDGAQLSSAFDRRFSEECLSSLGKALGNIARVVPYGLLIFFPSYPVMEKSLEFWRARDLARKMEALKPLFVEPRSKGSFSETISAYYARVAAPGSTGATFLAVCRGKASEGLDFSDTNGRGVIVTGLPYPPRMDPRVVLKMQFLDEMKGQGGAGGQFLSGQEWYRQQASRAVNQAIGRVIRHRQDYGAVFLCDHRFAFADARAQLPSWVRPHVRVYDNFGHVIRDVAQFFRVAERTMPAPAPRATAPSVRGEDAVSEAKSPGPFFSTRKAKSLDLHVPSLKQRSSGSPAAGDPESSLCVEYEQEPVPARQRPRGLLAALEHSEQRAGSPGEEQAHSCSTLSLLSEKRPAEEPRGGRKKIRLVSHPEEPVAGAQTDRAKLFMVAVKQELSQANFATFTQALQDYKGSDDFAALAACLGPLFAEDPKKHNLLQGFYQFVRPHHKQQFEEVCIQLTGRGCGYRPEHSIPRRQRAQPVLDPTGRTAPDPKLTVSTAAAQQLDPQEHLNQGRPHLSPRPPPTGDPGSQPQWGSGVPRAGKQGQHAVSAYLADARRALGSAGCSQLLAALTAYKQDDDLDKVLAVLAALTTAKPEDFPLLHRFSMFVRPHHKQRFSQTCTDLTGRPYPGMEPPGPQEERLAVPPVLTHRAPQPGPSRSEKTGKTQSKISSFLRQRPAGTVGAGGEDAGPSQSSGPPHGPAASEWGL [RTEL1]
- solubility change mitosis (log2) [1]: -0.104
- solubility in G1/S (log2) [2]: -0.0713

Sequence: MPPQLQETRMNRSIPVEVDESEPYPSQLLKPIPEYSPEEESEPPAPNIRNMAPNSLSAPTMLHNSSGDFSQAHSTLKLANHQRPVSRQVTCLRTQVLEDSEDSFCRRHPGLGKAFPSGCSAVSEPASESVVGALPAEHQFSFMEKRNQWLVSQLSAASPDTGHDSDKSDQSLPNASADSLGGSQEMVQRPQPHRNRAGLDLPTIDTGYDSQPQDVLGIRQLERPLPLTSVCYPQDLPRPLRSREFPQFEPQRYPACAQMLPPNLSPHAPWNYHYHCPGSPDHQVPYGHDYPRAAYQQVIQPALPGQPLPGASVRGLHPVQKVILNYPSPWDHEERPAQRDCSFPGLPRHQDQPHHQPPNRAGAPGESLECPAELRPQVPQPPSPAAVPRPPSNPPARGTLKTSNLPEELRKVFITYSMDTAMEVVKFVNFLLVNGFQTAIDIFEDRIRGIDIIKWMERYLRDKTVMIIVAISPKYKQDVEGAESQLDEDEHGLHTKYIHRMMQIEFIKQGSMNFRFIPVLFPNAKKEHVPTWLQNTHVYSWPKNKKNILLRLLREEEYVAPPRGPLPTLQVVPL [TRAF3IP2]
- solubility change mitosis (log2) [1]: 0.168
- solubility in G1/S (log2) [2]: -0.199

Sequence: MPVHSRGDKKETNHHDEMEVDYAENEGSSSEDEDTESSSVSEDGDSSEMDDEDCERRRMECLDEMSNLEKQFTDLKDQLYKERLSQVDAKLQEVIAGKAPEYLEPLATLQENMQIRTKVAGIYRELCLESVKNKYECEIQASRQHCESEKLLLYDTVQSELEEKIRRLEEDRHSIDITSELWNDELQSRKKRKDPFSPDKKKPVVVSGPYIVYMLQDLDILEDWTTIRKAMATLGPHRVKTEPPVKLEKHLHSARSEEGRLYYDGEWYIRGQTICIDKKDECPTSAVITTINHDEVWFKRPDGSKSKLYISQLQKGKYSIKHS [BRMS1L]
- solubility change mitosis (log2) [1]: -0.0561
- solubility in G1/S (log2) [2]: -0.0165

Sequence: MQVPQDGEDLAGQPWYHGLLSRQKAEALLQQNGDFLVRASGSRGGNPVISCRWRGSALHFEVFRVALRPRPGRPTALFQLEDEQFPSIPALVHSYMTGRRPLSQATGAVVSRPVTWQGPLRRSFSEDTLMDGPARIEPLRARKWSNSQPADLAHMGRSREDPAGMEASTMPISALPRTSSDPVLLKAPAPLGTVADSLRASDGQLQAKAPTKPPRTPSFELPDASERPPTYCELVPRVPSVQGTSPSQSCPEPEAPWWEAEEDEEEENRCFTRPQAEISFCPHDAPSCLLGPQNRPLEPQVLHTLRGLFLEHHPGSTALHLLLVDCQATGLLGVTRDQRGNMGVSSGLELLTLPHGHHLRLELLERHQTLALAGALAVLGCSGPLEERAAALRGLVELALALRPGAAGDLPGLAAVMGALLMPQVSRLEHTWRQLRRSHTEAALAFEQELKPLMRALDEGAGPCDPGEVALPHVAPMVRLLEGEEVAGPLDESCERLLRTLHGARHMVRDAPKFRKVAAQRLRGFRPNPELREALTTGFVRRLLWGSRGAGAPRAERFEKFQRVLGVLSQRLEPDR [SH2D3A]
- solubility change mitosis (log2) [1]: 0.0323
- solubility in G1/S (log2) [2]: 0.386

Sequence: MRDADADAGGGADGGDGRGGHSCRGGVDTAAAPAGGAPPAHAPGPGRDAASAARGSRMRPHIFTLSVPFPTPLEAEIAHGSLAPDAEPHQRVVGKDLTVSGRILVVRWKAEDCRLLRISVINFLDQLSLVVRTMQRFGPPVSR [LAGE3]
- solubility change mitosis (log2) [1]: 0.0284
- solubility in G1/S (log2) [2]: 0.0355

Sequence: MRPLDIVELAEPEEVEVLEPEEDFEQFLLPVINEMREDIASLTREHGRAYLRNRSKLWEMDNMLIQIKTQVEASEESALNHLQNPGDAAEGRAAKRCEKAEEKAKEIAKMAEMLVELVRRIEKSESS [MRFAP1]
- solubility change mitosis (log2) [1]: 0.549
- solubility in G1/S (log2) [2]: 0.156

Sequence: MRPWTGSWRWIMLILFAWGTLLFYIGGHLVRDNDHPDHSSRELSKILAKLERLKQQNEDLRRMAESLRIPEGPIDQGPAIGRVRVLEEQLVKAKEQIENYKKQTRNGLGKDHEILRRRIENGAKELWFFLQSELKKLKNLEGNELQRHADEFLLDLGHHERSIMTDLYYLSQTDGAGDWREKEAKDLTELVQRRITYLQNPKDCSKAKKLVCNINKGCGYGCQLHHVVYCFMIAYGTQRTLILESQNWRYATGGWETVFRPVSETCTDRSGISTGHWSGEVKDKNVQVVELPIVDSLHPRPPYLPLAVPEDLADRLVRVHGDPAVWWVSQFVKYLIRPQPWLEKEIEEATKKLGFKHPVIGVHVRRTDKVGTEAAFHPIEEYMVHVEEHFQLLARRMQVDKKRVYLATDDPSLLKEAKTKYPNYEFISDNSISWSAGLHNRYTENSLRGVILDIHFLSQADFLVCTFSSQVCRVAYEIMQTLHPDASANFHSLDDIYYFGGQNAHNQIAIYAHQPRTADEIPMEPGDIIGVAGNHWDGYSKGVNRKLGRTGLYPSYKVREKIETVKYPTYPEAEK [FUT8]
- solubility change mitosis (log2) [1]: -0.0307
- solubility in G1/S (log2) [2]: -0.188

Sequence: MRRAELAGLKTMAWVPAESAVEELMPRLLPVEPCDLTEGFDPSVPPRTPQEYLRRVQIEAAQCPDVVVAQIDPKKLKRKQSVNISLSGCQPAPEGYSPTLQWQQQQVAQFSTVRQNVNKHRSHWKSQQLDSNVTMPKSEDEEGWKKFCLGEKLCADGAVGPATNESPGIDYVQIGFPPLLSIVSRMNQATVTSVLEYLSNWFGERDFTPELGRWLYALLACLEKPLLPEAHSLIRQLARRCSEVRLLVDSKDDERVPALNLLICLVSRYFDQRDLADEPS [GEMIN2]
- solubility change mitosis (log2) [1]: 0.437
- solubility in G1/S (log2) [2]: 0.59

Sequence: MRRDERDAKAMRSLQPPDGAGSPPESLRNGYVKSCVSPLRQDPPRGFFFHLCRFCNVELRPPPASPQQPRRCSPFCRARLSLGALAAFVLALLLGAEPESWAAGAAWLRTLLSVCSHSLSPLFSIACAFFFLTCFLTRTKRGPGPGRSCGSWWLLALPACCYLGDFLVWQWWSWPWGDGDAGSAAPHTPPEAAAGRLLLVLSCVGLLLTLAHPLRLRHCVLVLLLASFVWWVSFTSLGSLPSALRPLLSGLVGGAGCLLALGLDHFFQIREAPLHPRLSSAAEEKVPVIRPRRRSSCVSLGETAASYYGSCKIFRRPSLPCISREQMILWDWDLKQWYKPHYQNSGGGNGVDLSVLNEARNMVSDLLTDPSLPPQVISSLRSISSLMGAFSGSCRPKINPLTPFPGFYPCSEIEDPAEKGDRKLNKGLNRNSLPTPQLRRSSGTSGLLPVEQSSRWDRNNGKRPHQEFGISSQGCYLNGPFNSNLLTIPKQRSSSVSLTHHVGLRRAGVLSSLSPVNSSNHGPVSTGSLTNRSPIEFPDTADFLNKPSVILQRSLGNAPNTPDFYQQLRNSDSNLCNSCGHQMLKYVSTSESDGTDCCSGKSGEEENIFSKESFKLMETQQEEETEKKDSRKLFQEGDKWLTEEAQSEQQTNIEQEVSLDLILVEEYDSLIEKMSNWNFPIFELVEKMGEKSGRILSQVMYTLFQDTGLLEIFKIPTQQFMNYFRALENGYRDIPYHNRIHATDVLHAVWYLTTRPVPGLQQIHNGCGTGNETDSDGRINHGRIAYISSKSCSNPDESYGCLSSNIPALELMALYVAAAMHDYDHPGRTNAFLVATNAPQAVLYNDRSVLENHHAASAWNLYLSRPEYNFLLHLDHVEFKRFRFLVIEAILATDLKKHFDFLAEFNAKANDVNSNGIEWSNENDRLLVCQVCIKLADINGPAKVRDLHLKWTEGIVNEFYEQGDEEANLGLPISPFMDRSSPQLAKLQESFITHIVGPLCNSYDAAGLLPGQWLEAEEDNDTESGDDEDGEELDTEDEEMENNLNPKPPRRKSRRRIFCQLMHHLTENHKIWKEIVEEEEKCKADGNKLQVENSSLPQADEIQVIEEADEEE [PDE3B]
- solubility change mitosis (log2) [1]: -0.0328
- solubility in G1/S (log2) [2]: -0.122

Sequence: MRRDVNGVTKSRFEMFSNSDEAVINKKLPKELLLRIFSFLDVVTLCRCAQVSRAWNVLALDGSNWQRIDLFDFQRDIEGRVVENISKRCGGFLRKLSLRGCLGVGDNALRTFAQNCRNIEVLNLNGCTKTTDATCTSLSKFCSKLRHLDLASCTSITNMSLKALSEGCPLLEQLNISWCDQVTKDGIQALVRGCGGLKALFLKGCTQLEDEALKYIGAHCPELVTLNLQTCLQITDEGLITICRGCHKLQSLCASGCSNITDAILNALGQNCPRLRILEVARCSQLTDVGFTTLARNCHELEKMDLEECVQITDSTLIQLSIHCPRLQVLSLSHCELITDDGIRHLGNGACAHDQLEVIELDNCPLITDASLEHLKSCHSLERIELYDCQQITRAGIKRLRTHLPNIKVHAYFAPVTPPPSVGGSRQRFCRCCIIL [FBXL20]
- solubility change mitosis (log2) [1]: -0.0226
- solubility in G1/S (log2) [2]: -0.0856
